Laboratory results published in US10081667B2, “Composition and method for therapeutic agent delivery during pregnancy” (University of Mississippi Medical Center, priority 2013, dated 2018).

B1: SynB1-ELP-p50: SynB1 peptide fused to N-terminus of ELP (SEQ ID NO: 4), p50 peptide at the C-terminus; SEQ ID NO: 15 (protein)
chain: MRGGRLSYSRRRFSTSTGRGCGPGVGVPGAGVPGGGVPGAGVPGGGVPGAGVPGGGVPGAGVPGGGVPGAGVPGGGVPGAGVPGGGVPGAGVPGGGVPGAGVPGVGVPGAGVPGGGVPGAGVPGGGVPGAGVPGGGVPGAGVPGGGVPGAGVPGGGVPGAGVPGGGVPGAGVPGGGVPGAGVPGVGVPGAGVPGGGVPGAGVPGGGVPGAGVPGGGVPGAGVPGGGVPGAGVPGGGVPGAGVPGGGVPGAGVPGGGVPGAGVPGVGVPGAGVPGGGVPGAGVPGGGVPGAGVPGGGVPGAGVPGGGVPGAGVPGGGVPGAGVPGGGVPGAGVPGGGVPGAGVPGVGVPGAGVPGGGVPGAGVPGGGVPGAGVPGGGVPGAGVPGGGVPGAGVPGGGVPGAGVPGGGVPGAGVPGGGVPGAGVPGVGVPGAGVPGGGVPGAGVPGGGVPGAGVPGGGVPGAGVPGGGVPGAGVPGGGVPGAGVPGGGVPGAGVPGGGVPGAGVPGVGVPGAGVPGGGVPGAGVPGGGVPGAGVPGGGVPGAGVPGGGVPGAGVPGGGVPGAGVPGGGVPGAGVPGGGVPGAGVPGVGVPGAGVPGGGVPGAGVPGGGVPGAGVPGGGVPGAGVPGGGVPGAGVPGGGVPGAGVPGGGVPGAGVPGGGVPGAGVPGVGVPGAGVPGGGVPGAGVPGGGVPGAGVPGGGVPGAGVPGGGVPGAGVPGGGVPGAGVPGGGVPGAGVPGGGVPGAGVPGVGVPGAGVPGGGVPGAGVPGGGVPGAGVPGGGVPGAGVPGGGVPGAGVPGGGVPGAGVPGGGVPGAGVPGGGVPGAGVPGWPGSGGVQRKRQKLMP
modifications: synthetic SynB1-ELP-p50 sequence
B2: ELP-VEGF: ELP sequence (SEQ ID NO: 4) fused to a C-terminal VEGF121 sequence, SEQ ID NO: 14; 73 kDa protein (protein)
chain: MSKGPGVGVPGAGVPGGGVPGAGVPGGGVPGAGVPGGGVPGAGVPGGGVPGAGVPGGGVPGAGVPGGGVPGAGVPGGGVPGAGVPGVGVPGAGVPGGGVPGAGVPGGGVPGAGVPGGGVPGAGVPGGGVPGAGVPGGGVPGAGVPGGGVPGAGVPGGGVPGAGVPGVGVPGAGVPGGGVPGAGVPGGGVPGAGVPGGGVPGAGVPGGGVPGAGVPGGGVPGAGVPGGGVPGAGVPGGGVPGAGVPGVGVPGAGVPGGGVPGAGVPGGGVPGAGVPGGGVPGAGVPGGGVPGAGVPGGGVPGAGVPGGGVPGAGVPGGGVPGAGVPGVGVPGAGVPGGGVPGAGVPGGGVPGAGVPGGGVPGAGVPGGGVPGAGVPGGGVPGAGVPGGGVPGAGVPGGGVPGAGVPGVGVPGAGVPGGGVPGAGVPGGGVPGAGVPGGGVPGAGVPGGGVPGAGVPGGGVPGAGVPGGGVPGAGVPGGGVPGAGVPGVGVPGAGVPGGGVPGAGVPGGGVPGAGVPGGGVPGAGVPGGGVPGAGVPGGGVPGAGVPGGGVPGAGVPGGGVPGAGVPGVGVPGAGVPGGGVPGAGVPGGGVPGAGVPGGGVPGAGVPGGGVPGAGVPGGGVPGAGVPGGGVPGAGVPGGGVPGAGVPGVGVPGAGVPGGGVPGAGVPGGGVPGAGVPGGGVPGAGVPGGGVPGAGVPGGGVPGAGVPGGGVPGAGVPGGGVPGAGVPGVGVPGAGVPGGGVPGAGVPGGGVPGAGVPGGGVPGAGVPGGGVPGAGVPGGGVPGAGVPGGGVPGAGVPGGGVPGAGVPGWPGSGAPMAEGGGQNHHEVVKFMDVYQRSYCHPIETLVDIFQEYPDEIEYIFKPSCVPLMRCGGCCNDEGLECVPTEESNITMQIMRIKPHQGQHIGEMSFLQHNKCECRPKKDRARQEKCDKPRR
modifications: synthetic ELP-VEGF sequences
notes: 73 kDa protein

Columns and labels:
[1] = rat, in vivo
NF-κB = assay: In vitro NF-κB activation assay: nuclear localization of NF-κB in TNFα-stimulated HUVECs; assay type: cell-based, human; settings: 20 μM pretreatment 24 h, TNFα 1 h
Experimental: FIG. 14 includes images and a bar graph illustrating inhibition of NF-κB activation with an ELP-delivered p50 peptide. FIG. 14A. Localization of NF-κB in HUVEC cells before and after TNFα stimulation. HUVECs were treated with SynB1-ELP control or SynB1-ELP-p50 (20 μM) for 24 h. Cells were then stimulated for 1 h with TNFα, and NF-κB localization was determined by immunostaining for the p65 subunit (green) and for nuclei with DAPI (blue). FIG. 14B. The nuclear cytoplasmic ratio of NF-κB staining was determined under each treatment condition. Data represent the mean of 30-60 cells per treatment and are averaged over three experiments.
This investigation has developed an ELP-fused peptide inhibitor of activated NF-κB. NF-κB activation upon extracellular signaling is mediated by phosphorylation and release of the natural inhibitor I-κB from the NF-κB p50/p65 heterodimer. I-κB release exposes a nuclear localization sequence (NLS) on the p50 subunit of NF-κB, and once exposed, this NLS mediates nuclear import of NF-κB. Once inside the nucleus, NF-κB binds to response elements on its target genes and regulates gene expression. […] Stimulation of cultured HUVECs with TNF-α leads to rapid activation of the NF-κB pathway, and this can be detected by monitoring nuclear localization of NF-κB (FIG. 14A, left panel).

endothelin-1 = assay: Endothelin-1 release by HUVECs, ELISA; assay type: cell-based, human
Experimental: FIG. 15 includes a graph illustrating the inhibition of endothelin release by SynB1-ELP-p50. HUVECs growing in 24-well plates were treated with 50 μM SynB1-ELP or SynB1-ELP-p50 overnight, then 50 or 100 ng/mL […]. Cells were incubated overnight, and culture media was collected and frozen.
TNFα stimulation also leads to the secretion of the vasoactive peptide endothelin-1 by HUVECs. This endothelin release contributes to the hypertension associated with the pro-inflammatory environment in preeclampsia.

[2] = system: human umbilical vein endothelial cells (HUVECs); assay: HUVEC proliferation, MTS cell proliferation assay; assay type: cell-based; settings: 72 h exposure
Experimental: FIG. 9 is a bar graph showing ELP-VEGF stimulation of HUVEC proliferation. HUVEC cell proliferation was determined after 72 h exposure to ELP, VEGF, or ELP-VEGF at the indicated concentrations using the MTS cell proliferation assay.
Proliferation of human umbilical vein endothelial cells (HUVECs) is stimulated when the cell are exposed to VEGF.

[3] = ELP-VEGF pharmacokinetics and biodistribution in mice after bolus IV; assay type: in vivo, C57/B16 mice
Experimental: FIG. 12 includes graphs showing ELP-VEGF pharmacokinetics and biodistribution. FIG. 12A. Fluorescently labeled free VEGF or ELP-VEGF were administered by IV injection to C57/B16 mice. Plasma levels were determined by direct fluorescence quantitation and fit to a two-compartment pharmacokinetic model. FIG. 12B. […] FIG. 12D.
In addition to examining the ELP-VEGF activity in vitro, the pharmacokinetics (PK) and biodistribution of ELP-VEGF in comparison to free VEGF121 is also determined. Both free VEGF121 and ELP-VEGF were fluorescently labeled, and their PK and biodistribution were determined in mice after bolus intravenous administration. […] This is consistent with other reports of approximately a 30 minute half-life for recombinant VEGF in humans. ELP-VEGF cleared more slowly than free VEGF121 (FIG. 12A). […] Four hours after the infusion, the biodistribution was determined by ex vivo whole organ fluorescence imaging.

[4] = system: rat model of preeclampsia; assay: Blood pressure in the reduced uterine perfusion (RUPP) rat model of preeclampsia; assay type: in vivo, rats; settings: 1 mg/kg/day IP minipump GD14 to GD19, measured GD19
Experimental: FIG. 13 is a bar graph showing effect of ELP-VEGF on blood pressure in the reduced uterine perfusion model. A study was conducted in pregnant rats subjected to surgical reduction of uterine blood flow (RUPP) on gestational day 14 (GD14). ELP-VEGF or saline control was administered by continuous infusion via IP minipump from GD14 to GD19 at a dose of 1 mg/kg/day. Data represent the mean arterial pressure as assessed by indwelling carotid catheters on GD19. Individual animal data are indicated by the points.
Whether ELP-VEGF was effective for lowering blood pressure in a rat model of preeclampsia is texted next. Pregnant rats at gestational day 14 (GD14) were subjected to surgery to reduce ale blood flow to the placentas. It has previously been shown that this model, achieved by partially restricting the ovarian arteries and the dorsal aorta, results in a preeclampsia-like syndrome in the rat. The effects mirror human preeclampsia in that the rats develop hypertension, proteinuria, reduced renal function, fetal growth restriction, and some fetal loss. […] The hypertension associated with this model can be seen in FIG. 13, where the mean arterial pressure increased from about 105 mmHg in normal pregnant rats on GD19 to over 120 mmHg in the preeclampsia model as measured by a pressure transducer inserted into a carotid arterial catheter.

Molecule | entry into fetal circulation / pups [1] | terminal half-life (in words) [1] | nuclear translocation of NF-κB after TNF-α stimulation (NF-κB) | endothelin release from unstimulated HUVECs (endothelin-1; 50 μM) | endothelin release from TNFα-stimulated HUVECs (endothelin-1; 50 μM pre-treatment overnight) | stimulation of HUVEC proliferation [2] | fluorescence in the urine at the end of the experiment [3] | plasma clearance rate relative to free VEGF121 ([3]; IV) | kidney deposition relative to free VEGF121 ([3]; four hours after the infusion) | organ accumulation, ex vivo whole organ fluorescence imaging ([3]; four hours after the infusion) | mean arterial pressure [4]
B1 | effectively prevents the peptide from entering the fetal circulation | greater than two hours | completely blocks this nuclear translocation of NF-κB | decreases the endothelin release from unstimulated HUVECs | the endothelin release is completely blocked |  |  |  |  |  | 
B2 |  |  |  |  |  | stimulated HUVEC proliferation with equal potency | less fluorescence detectable in the urine | about half the rate of free VEGF121 | significantly lower than for free VEGF121 | accumulated more highly in the spleen and liver than did free VEGF121 | effectively lowered the blood pressure of the preeclampsia-induced rats to near normal levels
